B1: ZNF449 (parent)
chain: QLTGHQRIHSGEEPHKCPECGKRF
B2: C8orf76 (parent)
chain: YCAKLCEPQWFYEETESSDDVEVL

Variants of: B1
Assay: protein stability index of a GFP-peptide fusion (GPS, HEK-293T) (PSI 1-6); higher = more stable
Conditions: c terminus: a fixed tail appended
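Further: lentivirally expressed fusions sorted by FACS into six bins by GFP to DsRed ratio, PSI derived from sequencing read proportions per bin multiplied by bin number.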

| Variant | protein stability index |
| --- | --- |
| E19D | 3.4 |
| E19F | 3.69 |
| E19G | 3.09 |
| E19H | 4.12 |
| E19I | 3.37 |
| E19K | 3.33 |
| E19L | 3.16 |
| E19M | 4.05 |
| E19N | 4.01 |
| E19P | 4.23 |
| E19Q | 3.23 |
| E19R | 3.15 |
| E19S | 3.62 |
| E19T | 4.03 |
| E19V | 4.53 |
| E19W | 3.61 |
| E19Y | 3.95 |
| C20A | 4.35 |
| C20D | 5.03 |
| C20E | 5.41 |
| C20F | 4.39 |
| C20G | 4.49 |
| C20H | 4.46 |
| C20I | 4.36 |
| C20K | 4.99 |
| C20L | 4.05 |

| Variant | protein stability index |
| --- | --- |
| C20M | 3.82 |
| C20N | 4.49 |
| C20P | 4.61 |
| C20Q | 4.79 |
| C20R | 5.4 |
| C20S | 4.37 |
| C20T | 4.87 |
| C20V | 3.71 |
| C20W | 4.34 |
| C20Y | 4.67 |
| G21A | 4.21 |
| G21C | 3.77 |
| G21D | 4.36 |
| G21E | 4.87 |
| G21F | 4.19 |
| G21H | 4.08 |
| G21I | 4.34 |
| G21K | 4.41 |
| G21L | 4.6 |
| G21M | 4.53 |
| G21N | 4.47 |
| G21P | 4.7 |
| G21Q | 4.47 |
| G21R | 4.34 |
| G21S | 4.32 |
| G21T | 4.47 |

| Variant | protein stability index |
| --- | --- |
| G21V | 4.49 |
| G21W | 3.73 |
| G21Y | 3.6 |
| K22A | 4.72 |
| K22C | 4.2 |
| K22D | 4.49 |
| K22E | 4.62 |
| K22F | 4.03 |
| K22H | 4.3 |
| K22I | 3.73 |
| K22L | 4.29 |
| K22M | 4.43 |
| K22N | 4.16 |
| K22P | 4.22 |
| K22Q | 3.85 |
| K22R | 4 |
| K22S | 4.71 |
| K22T | 4.21 |
| K22V | 4.51 |
| K22W | 3.6 |
| K22Y | 4.3 |
| R23A | 4.91 |
| R23C | 3.93 |
| R23D | 4.99 |
| R23E | 5.37 |
| R23F | 3.98 |

| Variant | protein stability index |
| --- | --- |
| R23G | 4.32 |
| R23H | 4.23 |
| R23K | 5.28 |
| R23L | 4.74 |
| R23M | 4.06 |
| R23N | 3.95 |
| R23P | 4.28 |
| R23Q | 3.44 |
| R23S | 4.83 |
| R23T | 4.52 |
| R23V | 4.72 |
| R23W | 3.92 |
| F24A | 5.07 |
| F24C | 5.12 |
| F24E | 4.88 |
| F24G | 4.7 |
| F24H | 4.84 |
| F24I | 3.65 |
| F24L | 4.64 |
| F24M | 4.13 |
| F24N | 4.4 |
| F24Q | 4.62 |
| F24T | 4.83 |
| F24Y | 4.58 |

Variants of: B2
Assay: as above
Conditions: c terminus: a fixed tail appended

| Variant | protein stability index |
| --- | --- |
| E14N | 2.37 |
| C2W | 2.82 |
| Y12T | 1.82 |
| S17Y | 2.24 |
| Y12L | 2.14 |
| F11P | 3.44 |
| T15W | 1.81 |
| Q9V | 1.74 |
| L5T | 2.78 |
| D19Q | 2.2 |
| C6I | 2.88 |
| E7K | 2.78 |
| P8W | 2.27 |
| D20M | 2.02 |
| S17N | 2.4 |
| S18Q | 2.38 |
| S18P | 2.3 |
| E13F | 2.16 |
| E14V | 1.86 |
| L24F | 2.43 |
| F11R | 2.89 |
| T15K | 2.08 |

| Variant | protein stability index |
| --- | --- |
| L24V | 2.31 |
| C2G | 3.72 |
| K4M | 2.48 |
| D19H | 2.25 |
| P8Q | 2.55 |
| S17H | 1.87 |
| K4A | 2.54 |
| K4Q | 3.46 |
| E14F | 2.24 |
| Y12E | 3.35 |
| W10F | 3.22 |
| L5P | 2.15 |
| L5F | 2.29 |
| Y1K | 4.66 |
| L5S | 2.04 |
| F11Q | 3.57 |
| Q9W | 1.04 |
| L24Y | 1.76 |
| C6T | 1.84 |
| D20P | 1.81 |
| Y1S | 4.19 |
| A3H | 2.59 |

| Variant | protein stability index |
| --- | --- |
| A3K | 3.07 |
| Y12A | 2.28 |
| E16V | 1.53 |
| P8I | 1.58 |
| Y1L | 3.71 |
| F11A | 3.01 |
| S18A | 2.54 |
| S17L | 1.98 |
| Y12Q | 2.23 |
| Y1N | 5.01 |
| D20Y | 1.76 |
| A3C | 2.7 |
| K4Y | 3.2 |
| T15E | 2.72 |
| D19A | 2.15 |
| Q9D | 3.86 |
| F11K | 3.96 |
| F11S | 3.54 |
| A3T | 2.45 |
| E22Q | 2.61 |
| S17I | 1.83 |
